The values below come from patent CN105542009A (UNIV NANCHANG, dated 2016).

Test [1] deals with T1, PSMA胞外区蛋白 (重组表达的前列腺特异性膜抗原膜外区) (UniProt Q04609 44-750).
T1 construct: extracellular domain; also called PSMA蛋白; PSMA抗原; not shown: His tag from vector pRAG2a (purified by HisTrap, detected by anti-His antibody)
The experiment in a line: indirect phage-ELISA, PSMA extracellular region coated at 5 μg/mL, HRP-anti-M13 detection. (In general: ELISA stands for enzyme-linked immunosorbent assay.)

Test [2] addresses T2, 前列腺特异性膜抗原 (PSMA) on LNCaP cells (UniProt Q04609 1-750, limits assumed).
T2 construct: whole, on cells; Endogenous PSMA on LNCaP cells; MKN45 cells (no PSMA) served as negative cells; also called prostate specific membrane antigen
The experiment in a line: cell ELISA on fixed LNCaP (PSMA+) against MKN45 (PSMA-) cells, HRP-anti-M13 detection.

T2 sequence (Q04609 whole entry): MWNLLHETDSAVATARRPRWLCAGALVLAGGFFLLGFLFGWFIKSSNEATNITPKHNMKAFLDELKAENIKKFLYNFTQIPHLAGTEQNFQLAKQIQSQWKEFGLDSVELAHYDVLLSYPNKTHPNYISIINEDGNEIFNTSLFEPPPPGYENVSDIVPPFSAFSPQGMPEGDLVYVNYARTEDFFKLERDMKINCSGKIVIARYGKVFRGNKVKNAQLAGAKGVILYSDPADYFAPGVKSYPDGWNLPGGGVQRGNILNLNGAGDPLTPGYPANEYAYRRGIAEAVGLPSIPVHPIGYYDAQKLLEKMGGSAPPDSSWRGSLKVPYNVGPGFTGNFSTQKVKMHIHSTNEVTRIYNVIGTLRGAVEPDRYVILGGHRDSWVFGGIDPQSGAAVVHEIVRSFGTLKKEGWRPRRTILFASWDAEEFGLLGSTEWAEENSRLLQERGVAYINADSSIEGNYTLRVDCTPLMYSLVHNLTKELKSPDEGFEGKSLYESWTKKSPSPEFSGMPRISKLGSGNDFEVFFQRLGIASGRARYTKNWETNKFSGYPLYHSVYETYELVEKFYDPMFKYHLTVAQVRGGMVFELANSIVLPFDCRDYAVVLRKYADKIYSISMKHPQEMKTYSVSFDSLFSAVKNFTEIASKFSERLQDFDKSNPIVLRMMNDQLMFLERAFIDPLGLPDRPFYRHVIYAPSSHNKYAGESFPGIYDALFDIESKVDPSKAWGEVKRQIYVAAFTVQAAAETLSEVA
T1 sequence (Q04609 44-750): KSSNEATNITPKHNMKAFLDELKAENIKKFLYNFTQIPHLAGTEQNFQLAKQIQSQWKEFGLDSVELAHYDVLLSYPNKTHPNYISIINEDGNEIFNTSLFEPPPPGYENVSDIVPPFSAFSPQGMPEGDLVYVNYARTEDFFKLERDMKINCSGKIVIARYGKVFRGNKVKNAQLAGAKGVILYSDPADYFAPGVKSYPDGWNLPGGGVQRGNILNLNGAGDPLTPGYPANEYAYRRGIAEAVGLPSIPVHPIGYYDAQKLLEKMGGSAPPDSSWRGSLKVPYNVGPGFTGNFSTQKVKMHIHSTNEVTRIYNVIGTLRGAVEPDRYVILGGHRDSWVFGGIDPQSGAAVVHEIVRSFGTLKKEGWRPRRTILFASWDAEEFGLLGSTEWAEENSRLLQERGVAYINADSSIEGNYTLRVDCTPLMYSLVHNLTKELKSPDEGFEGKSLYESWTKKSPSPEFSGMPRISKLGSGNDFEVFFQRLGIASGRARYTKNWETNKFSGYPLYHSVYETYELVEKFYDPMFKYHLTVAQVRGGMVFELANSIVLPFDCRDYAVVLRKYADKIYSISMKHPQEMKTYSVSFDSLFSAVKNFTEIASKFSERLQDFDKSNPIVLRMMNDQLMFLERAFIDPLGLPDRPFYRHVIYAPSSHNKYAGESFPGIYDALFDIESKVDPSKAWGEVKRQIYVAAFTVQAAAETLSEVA

B1: 抗前列腺特异性膜抗原单域重链抗体噬菌体阳性克隆 (VHH)
VHH: QVQLVESGGGLVQAGGSLRLSCAASGRTFSRRDMGWFRQAPGKEREFVASISRSSAYTNYADSVKDRFTISRDNAKNTVYLQMYNLKPEDTAVYYCAAANYSTTRASAYRYWGQGTQVTVSS
notes: also called 针对前列腺特异性膜抗原的单域重链抗体阳性克隆; 展示本发明所述纳米抗体的噬菌体克隆; not shown: the phage coat protein fusion and any linker or tag are not described
For B1, the binding result in test [1] and in test [2] was “binds” in each case.
